Paper PMC3696110, “Hsp70 Oligomerization Is Mediated by an Interaction between the Interdomain Linker and the Substrate-Binding Domain” (PLoS ONE, 2013)
Values joined by “and” are separate entries in the source; they are usually repeats but may differ in a detail not shown here. Equal entries are not always repeated.

Assays:
[1] = nESI-MS relative populations of oligomeric forms; format: physicochemical, human; conditions: 150 mM ammonium acetate
Method: Prior to MS analysis, samples were buffer exchanged into 150 mM ammonium acetate, pH 7.4, using Micro Bio-spin 6 columns (Bio-Rad, Digilab Division, Cambridge, MA, USA). For all the experiments protein concentrations ranging from 6 to 18 µM were used. In the case of the substrate binding experiments, proteins were analyzed in the presence of a 1: 1 molar ratio of the NR peptide; this substrate concentration, lower than in the SEC experiments, was chosen to ensure adequate resolution of the various charge state series, which is critical for unambiguous assignment of substrate-bound states. Due to suppression effects during nESI ionization, a relatively limited set of molar ratios could be investigated by in this way.
nESI-MS spectra were obtained according to a previously published protocol on an orthogonal time-of-flight mass spectrometer with a Z-spray source (LCT, Waters, Manchester, UK) in positive ion mode using the following parameters: capillary voltage, 1500 V; sample cone voltage, 120 V (unless otherwise specified); extraction cone voltage, 1V; and ion transfer stage pressure, 8.8 mbar. Spectra were calibrated externally using a 33 mg/ml solution of cesium iodide. Data were acquired and processed with MassLynx software (Waters, Manchester, UK), and are shown with minimal smoothing and without background subtraction. The relative abundances of the different oligomeric states were estimated from the intensities of the most abundant charge states for each construct and are expressed as a percentage of the total intensity.

[2] = Analytical SEC relative populations of oligomeric forms; format: physicochemical, human; conditions: for Dimer population / Monomer population / Total oligomer population: Superdex 75, 4 °C, 50 mM Tris pH 7.4, 150 mM KCl
Method: (§1) Analytical SEC was performed at 4 °C using a Superdex 75 10/300 GL column (GE Healthcare LifeSciences, Little Chalfont, U.K.), which had previously been calibrated using a mixture of standard proteins (Gel Filtration LMW Calibration Kit; GE Healthcare LifeSciences, Little Chalfont, U.K.). Typically, samples of the various constructs contained 70 µM of protein in 50 mM Tris buffer at pH 7.4, with 150 mM KCl, 5 mM MgCl2 and were incubated for 15 min (unless otherwise specified) at room temperature before being loaded onto the column for analysis. To evaluate the reversibility of the oligomerization process, the different elution peaks obtained for each protein variant were subsequently analyzed after concentrating the different fractions using AmiconUltra-0.5, Ultracel-3 Membrane, 3 kDa (Millipore, Bedford, MA, USA). A similar analysis was also performed at 6 µM concentration for all the protein variants to allow for a direct comparison between the results obtained by SEC and MS experiments.
The influence of substrate binding on the oligomerization properties of all the variants was examined by using the well-characterized Hsp70 substrate, the NR peptide (NRLLLTG, Genemed Synthesis Inc., San Antonio, TX, USA). A 14-fold excess of the peptide was added in each case to a fresh protein sample, incubated for 1 h at room temperature, unless otherwise specified, and then loaded onto the Superdex 75 10/300 GL column for analysis. The relative quantities of the different protein species were estimated by analysing the chromatographic profile using a Gaussian function for each elution peak (OriginPro 8, Originlab, Northampton, MA, USA) and measuring the relative area under each peak.

refolded SBD641 = test: Fluorescence titration of dansyl-NR peptide binding, refolded protein; parameters: species or system human; conditions: refolded vs native SBD641, fluorescence titration
Method: The interaction between the different Hsp70 variants and the NR peptide was studied in 50 mM Tris buffer at pH 7.4, with 150 mM KCl, and 5 mM MgCl2 using fluorescence spectroscopy by titrating different concentrations of chaperone into a solution containing 2 µM dansyl-NR peptide (N-terminally labeled; Genemed Synthesis Inc., San Antonio, TX, USA) after incubating the mixtures for 1 h at 25°C. The concentration of dansyl-NR peptide was calculated using an extinction coefficient at 327 nm of 4300 M^-1.cm^-1 [39]. The fluorescence emission spectrum of each sample was recorded from 400 to 630 nm after excitation at 330 nm, and the data reported correspond to the average intensity at the maximum emission wavelength of two different samples for which ten spectra were recorded. The increase in fluorescence signal was plotted as a function of chaperone concentration (Figure S2), and analyzed assuming single-site binding using the following equation:
ΔF=ΔFmaxΘL=ΔFmax/2LT[(PT+LT+Kd)−(PT+LT+Kd)^2−4PTLT] (1)
where ΘL is the fraction of bound ligand, ΔF is the increase in fluorescence intensity observed at a given concentration of Hsp70 variant, ΔF max is the increase in fluorescence at saturation, L T and P T are the total ligand and protein concentration respectively, and K d is the apparent dissociation constant of the complex. […]

[3] = SEC/DLS of oligomeric species; format: physicochemical, human; conditions: SEC, 20 µM SBD641
Method: as §1, with “A similar analysis was also performed at 6 µM concentration for all the protein variants to allow for a direct comparison between the results obtained by SEC and MS experiments.” left out
Dynamic light scattering. Representative size distributions of SBD641 at different protein concentrations in Tris 50 mM, pH 7.4, 150 mM KCl, 5 mM MgCl2 were recorded at 25 °C on the Zetasizer Nano ZS instrument (Malvern Instruments Ltd.) at 633 nm after 1 h of incubation at room temperature. […] Some samples were analyzed after 1 h and 4 h incubation at room temperature and the same intensity size distributions were obtained. The samples were centrifuged for 15 min at 13200 rpm to remove dust particles and the scattered light was detected at an angle of 173°. […]

[4] = 6-15 µM protein, pH 7.4, estimated error 5% (SD of 3-4 independent experiments)
[5] = 70 µM protein, 5 mM MgCl2, 15 min at room temperature, estimated error 3.5% (SD of 3-4 independent experiments)
[6] = 6-15 µM protein, 5 mM MgCl2, estimated error 3.5% (SD of 3-4 independent experiments)

For “SBD641: truncated human Hsp70 (384-641), full-length SBD with interdomain linker”, the Dimer population [1, 4] was 40%, the Monomer population [1, 4] was 46% and the Total oligomer population [1, 4] was > 50% and 54%. It also gave a Trimer population [1, 4] of 12%, a Tetramer population ([1]; low μM protein, pH 7.4) of 2% and a Dimer population [2, 5] of 55%. It also gave a Monomer population [2, 5] of 23%, a Total oligomer population [2, 5] of 77% and a Dimer population [2, 6] of 44%. For the same substance, the Monomer population [2, 6] was 37%, the Total oligomer population [2, 6] was > 50% and 63% and the “Monomeric fraction, native protein” value ([2]; native SBD641, comparison with refolded) was 37%. The “Monomeric fraction, refolded protein” value ([2]; refolded after thermal denaturation) was 71%, the “Affinity of refolded SBD641 for substrate” value (refolded SBD641) was “same affinity as the native protein” and the “Oligomer fraction, no NR peptide” value [3] was “ca. 0.7”.
